Results published in publication PMC3976300.

Assays:
Experiment in all cases: intrinsic fluorescence quenching
[1] = test system: All4779 (Anabaena sp. PCC7120); conditions: Fluorescence: 20 mM Tris-HCl pH 8, 1 mM EDTA, 20 or 100 mM NaCl, room temperature, EMSA: 20 mM Tris-HCl pH 8, 1 mM MgCl2, 100 mM KCl, 8 mM DTT, 4% sucrose …
[2] = test system: Alr0088 (Anabaena sp. PCC7120); conditions: Fluorescence: 20 mM Tris-HCl pH 8, 1 mM EDTA, 20 or 100 mM NaCl, room temperature, EMSA: 20 mM Tris-HCl pH 8, 1 mM MgCl2, 100 mM KCl, 8 mM DTT, 4% sucrose …
[3] = test system: EcoSSB (Escherichia coli); conditions: 20 mM NaCl; Fluorescence: 20 mM Tris-HCl pH 8, 1 mM EDTA, 20 or 100 mM NaCl, room temperature; EMSA: 20 mM Tris-HCl pH 8, 1 mM MgCl2, 100 mM KCl, 8 mM DTT, 4% sucrose …
[4] = 20 mM NaCl, reciprocal of poly(dT) concentration at 50% fluorescence

Substance	binding signal ([1]; high NaCl)	binding signal ([2]; high NaCl)	Ka [1, 4]	Ka [2, 4]	Ka [3]
M13 ssDNA	18 % quenching	40 % quenching			
poly(dT)			5.13e+07 M⁻¹	2.56e+06 M⁻¹	6.76e+07 M⁻¹
